± gives the uncertainty stated by the source.

The nature of the series: amyloid nucleation score (Sup35N fusion, yeast selection) (log enrichment); library NNK2; higher = more nucleation; inactive = no reads after selection. Summed up:
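Sup35N fusions to peptides of 20 random codons were expressed in psi-negative yeast, induced 24 hours with 100 μM copper sulfate, and grown 7 days at 30°C on medium lacking adenine and uracil. Input and output plasmid inserts were sequenced by Illumina. The nucleation score is the DiMSum log enrichment of output over input reads, centred on the mode score of non-aggregating sequences. Sequences with under 100 input reads were excluded.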
Consider NTITIMHSDEYVMRVSYICQ, for which the amyloid nucleation score turned out to be 1.87 ± 0.2.
Then NTLYSFVRGCKPRMEFNRVK, with -0.965 ± 1.
Take NTMELLFIGVWIAFWLN: the amyloid nucleation score entry is “inactive”.
For NTTSARSERR the value was -0.212 ± 0.37.
NVAMSCPRGRVPR registered an amyloid nucleation score of 1.35 ± 0.38.
For NVCRVDMAEKFGSFRLCN the value was -0.846 ± 0.34.
For NVFMRYTKFYMCLELGNCWG the value was -0.331 ± 0.5.
Then NVLDVGVGRTFVFK, with -0.291 ± 0.79.
Substance NVLLNQNIMVLPGPLYFSIT came in with an amyloid nucleation score of 6.129 ± 0.054.
NVMFF returned an amyloid nucleation score of 1.28 ± 0.13.
For NVPCGYEWSFNLCIMGEASS the value was 6.842 ± 0.049; for NVPKSSINEWSLPDLLVLNV, 0.923 ± 0.81.
For NVRSWYLDNLFLTFAVA the value was 0.164 ± 0.63; for NVSRGTKIDNMDRVYFYPEA, -0.055 ± 0.46.
Regarding NVVQMMSVEFMPMVHVSAIL, the amyloid nucleation score was 4.23 ± 0.063.
Then NVWVSDFVGERAGDLHLSLY, with 0.025 ± 1.1.
For NVYDRGVIGYMSNNVHTEGI the value was -1.07 ± 1.1; for NVYVESSWVLARVIWRFYFD, -0.722 ± 0.62.
For NWGAWLNWFNLVIYGCRVIN the value was 6.03 ± 0.079; for NWGFISVLVALPWVWGLRPG, -0.387 ± 0.42.
In turn, NWGMLLGCGGW registered an amyloid nucleation score of 0.201 ± 0.8.
For NWHGSIFFIW the value was 5.708 ± 0.049; for NWLQFF, 0.966 ± 0.13; for NWMCMRCGVFVVLAVCLFWS, 3.42 ± 0.075.
For NWSVTGCQLRGGRTEGNGIR the value was 0.122 ± 0.5; for NWWRD, -0.071 ± 0.43; for NYDGVVVEDNVVGTRTSVAG, -0.007 ± 0.36.
Turning to NYDRTIW, the amyloid nucleation score is -1.01 ± 0.48.
Then NYEGGCGVNGVMSVPAVRNP, with 0.082 ± 1; and NYEGNGRVVITLLLGSNWYR, with 4.04 ± 0.086.
For NYFCIRS the value was 4.11 ± 0.052; for NYGVFTSIHVCYDVINVVRV, -0.661 ± 1.1; for NYIESFMHSQGCNPFQDSFM, 3 ± 0.12.
Then NYIWVLGYSEVGNTIMYTYH, with 6.224 ± 0.05; and NYMYGLNSVKSVGWLSDI, with 0.069 ± 0.46; and NYRFVCWDYISWVMVWTSI, with “inactive”.
As for NYSNFTIKYLNLKRTLLDL, the amyloid nucleation score was -1.74 ± 0.64.
For NYVNICFNLKFQVRHST the value was 4.41 ± 0.089; for PADPNCIFVIS, -1.25 ± 0.44.
For PAIYILLWAYSRSSACWLTA the value was “inactive”; for PCCVKSELGLPQWWSVYL, 5.645 ± 0.056.
For PCFRWSRGRKSCECCHVGYM the value was 0.122 ± 0.25; for PCGSCMSQNKSIG, 0.167 ± 0.31.
As for PCITLAFPVNKSRF, the amyloid nucleation score is -0.363 ± 1.1.
Regarding PCRFTYRRWTG, the amyloid nucleation score was -0.496 ± 0.41.
Then PCSGSLPRTKTD, with -0.167 ± 0.32; and PCVPGDYTVAKVAFSTY, with -0.011 ± 1.1.
Then PCWCSVLVL, with 1.51 ± 0.41; and PDDCGWVLMFENQFAAAGTP, with 0.122 ± 0.28; and PEGISNGLK, with -1.44 ± 0.55.
Then PEQAVFTNNKYIYEVWLTTK, with “inactive”.
With PFHPICVYKRPFLCPE, the amyloid nucleation score entry was “inactive”.
Then PFLAFRGVWNFGL, with 5.1 ± 0.068; and PFQSNNSEVDGSYYMSVRC, with -0.705 ± 0.39.
For PFTMSVFKSYKIAQRSSWAW the value was 2.5 ± 0.089.
Then PFWVGNGKQGVFGKFDCYVI, with -1.19 ± 0.34; and PFYTYSKYKCTKFTDNYYAQ, with -1.02 ± 1.1; and PGAADRTVRYGSRRPPD, with -0.003 ± 0.41.
Take PGILRTFVETEYCITI: the amyloid nucleation score entry is “inactive”.
Take PGRRDSHVRAYQEGVVESVS: the amyloid nucleation score is 0.051 ± 0.49.
Then PGSAIRVVSMRLWGRRRSAG, with 0.458 ± 0.45.
For PGSMPRRMSRCWSIGLDGEE the value was 1.3 ± 0.32.
Then PGSNL, with -0.037 ± 0.42.
In the case of PHNYLYSFFRRIYYRIGCLN, the amyloid nucleation score was -0.461 ± 0.3.
In the case of PHQKSAY, the amyloid nucleation score was -0.284 ± 0.79.
Then PHRKV, with -0.536 ± 0.76; and PHSRNRFLMFA, with -0.488 ± 1.
For PIFYSPLAFMLRMYHNG, the amyloid nucleation score was -0.998 ± 0.38.
Then PIKCDRSFWRR, with 1.49 ± 0.22.
For PIMCKGNLTDFTFYCFCKFD the value was 6.6 ± 0.067; for PKFTMVPNNGMQVGIARNKW, 0.43 ± 0.29.
Regarding PKRFVLGY, the amyloid nucleation score was -1.55 ± 0.62.
For PLFTINRVVMPNINVETFAG the value was -0.522 ± 0.39; for PLGSNACPTHFSCD, “inactive”; for PLITDFLAGMLSPENVSVPQ, 0.883 ± 0.51.
Then PLLSVVYTNLRSSDGRVV, with 1.54 ± 0.31; and PLQPTQTYPFNSVFDGHKRV, with “inactive”; and PLVTCHDDEVQGMKFVSFFI, with -0.451 ± 0.76.
Then PMDEWHSFPLQNKLRVIGCG, with 0.115 ± 0.23; and PMNFYYIAPNICGLREKLWS, with 3.62 ± 0.064; and PNVAIYIPTGYGLTVTPPAS, with -1.02 ± 0.76.
On to PQRLWISISAHTLKFPHL, for which the amyloid nucleation score turned out to be 3.77 ± 0.073.
Then PQWEKRFKYTNEWAATFNGL, with “inactive”; and PRLCDECPSCVDLSGVWNPY, with “inactive”; and PRPFGKNWVKKDLNCLHKLN, with -0.251 ± 0.35.
For PRPVLAAALAKPLGTS, the amyloid nucleation score turned out to be 0.87 ± 0.23.
Then PRTISSSRLMWRYVSYLVIV, with “inactive”; and PRVGRRGSLRKCPWLLWYVL, with 0.052 ± 0.45; and PRWGRTMGCFSFRDPCRVTG, with -0.277 ± 0.35.
For PSIDSCRGRLVVRVQIRVEN the value was -1.24 ± 1.1; for PSLMNEVRMGVQCLLFST, 0.108 ± 0.23.
Then PSRLRYITICRVPGAMSDVN, with 0.268 ± 0.27.
In turn, PSRYAVLLCFGGVDTNVGIT showed an amyloid nucleation score of 4.967 ± 0.049.
Then PSSVKWTRSPGMRTTNGEVC, with 1.36 ± 0.23; and PSTIGRMVVLACWSDICRRG, with 8.88 ± 0.059; and PSWDDFSSPEVS, with -0.524 ± 0.39.
Then PTGPNSGNCIVLCPSDKSHE, with -0.363 ± 1.1; and PTGYILESTYFTGQGKCAGL, with -0.255 ± 1.1; and PTLHMGMPN, with -0.013 ± 0.79.
For PTMFNFKIYQIVRVGLPIHL the value was -1.53 ± 0.76; for PTSNLSWVT, 1.71 ± 0.17.
In turn, PVCCFAHMIIHYNCLGQKAY yielded an amyloid nucleation score of 2.08 ± 0.12.
In turn, PVGWSNRFRTMLPDS came in with an amyloid nucleation score of 0.861 ± 0.48.
Take PVHSAVATVLTLVNGKIGGA: the amyloid nucleation score was 1.24 ± 0.48.
With PVIRRLEFGWQNASYG, the amyloid nucleation score was -0.564 ± 0.76.
As to PVKTNFCENINYFIVPGFAL, the amyloid nucleation score entry was “inactive”.
Then PVLYFLGLSMVDNTITRSTA, with -0.763 ± 0.34; and PVMDNLFSKAFVG, with -0.741 ± 0.5; and PVNRQNFFSCD, with -1.67 ± 0.62.
For the substance PVYSSFYCCYVWHRNFRKYT, the amyloid nucleation score is -0.975 ± 0.29.
Then PWACIIYRLQGSPLINSRFN, with 1.04 ± 0.12; and PWCESLCVRRGAESVSTWVK, with 1.2 ± 0.22.
Then PYGVSPWVRVVSCSIEGNWT, with -0.289 ± 0.25; and PYMPGRMWSRILSVCSVCCV, with 1.48 ± 0.58.
Then QCFDFTD, with 1.1 ± 0.38.
Consider QCLQCGP, for which the amyloid nucleation score was -0.553 ± 0.49.
For QCYVIYS the value was 4.513 ± 0.029; for QDEHIMVIVKLRRYTFNWEL, 2.86 ± 0.11; for QELIK, 0.574 ± 0.44.
Then QEYLLLVAAGKHVNVDKTYL, with 0.594 ± 0.81; and QFCCVESLGLLALAWLFTGF, with 3.62 ± 0.11.
For the substance QFDMEQFVQCPGTMSSRAVG, the amyloid nucleation score was 5.04 ± 0.059.
For QFGNVRLSS the value was 0.995 ± 0.53; for QFRPLDCCLLNFDDSRIYCL, 4.88 ± 0.074; for QFVNQRSYKGSLTFFMIRGR, “inactive”.
Take QGGMMWGLLSYCEVLDDSDV: the amyloid nucleation score is -0.08 ± 1.
For QGHISHTGLIPMLGGSL the value was 3.23 ± 0.15; for QGLFLLSCPSSN, 2.54 ± 0.11; for QGNSETGGNMCYDASCWLYG, -0.064 ± 0.45.
For QGTRAYQSKALTVSIMLMLV the value was 3.45 ± 0.096; for QGVSVLFGVSATLY, 1.19 ± 0.26; for QIELGALNNRCGNRDGSGDW, -0.842 ± 0.35.
For QIFLIKIGAFVLLLTVQ the value was -1.34 ± 0.54.
For QIFSECRTYDFVLPGYMGYY, the amyloid nucleation score entry is “inactive”.
For QIFVR the value was 0.689 ± 0.55; for QINSHNWYDG, 0.369 ± 0.8.
In the case of QIQVLGWSRKSLMDNKL, the amyloid nucleation score result was “inactive”.
QKNTSQCFVLSW returned an amyloid nucleation score of 0.129 ± 0.49.
For QLICTMNFVAEYNWSALRRN the value was 4.55 ± 0.12.

The values above are taken from the supplement of paper PMC12042874.
